These results are taken from PMC5580885.

The target in the experiment is Tim50^IMS (purified, recombinant) (S. cerevisiae) (UniProt Q02776). Put plainly: cross-linking.
UniProt Q02776, sequence (Q02776 133-476): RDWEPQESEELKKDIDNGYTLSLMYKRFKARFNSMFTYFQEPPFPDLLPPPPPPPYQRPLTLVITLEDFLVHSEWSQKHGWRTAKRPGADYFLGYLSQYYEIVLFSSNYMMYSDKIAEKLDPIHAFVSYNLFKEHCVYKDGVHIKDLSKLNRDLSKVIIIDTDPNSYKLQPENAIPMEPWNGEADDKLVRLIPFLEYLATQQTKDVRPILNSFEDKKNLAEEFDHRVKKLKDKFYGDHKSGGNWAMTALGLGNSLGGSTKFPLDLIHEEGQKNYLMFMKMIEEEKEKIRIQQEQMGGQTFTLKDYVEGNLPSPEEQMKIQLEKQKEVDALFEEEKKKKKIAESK

As to “[35S]Tim23(F114C) (from UniProt P32897 1-222) (natural protein)”, the fold cross-linking with TOCL over without TOCL was determined as 6 fold.
